Legend:
Assay in all cases: pull-down binding Z-score (relative to library population); higher = stronger binding
[1] = tested on: G-clamp-N3 (biotin conjugate); details: RNA library: Library-1 (pre-miRNA loops + repeats)
In short: (§1)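 To score binding, a beads-only signal was subtracted, barcoded replicate probes were averaged with the highest and lowest dropped, and the value was converted to a Z-score using the library mean and standard deviation. The input was 1 μg of Cy5- or Cy3-end-labelled RNA library, heat-folded in phosphate/NaCl/KCl buffer and mixed for 60 min at 25 °C with streptavidin beads carrying 100 pmol of biotin-conjugated small molecule. Bound RNA was eluted in hot SDS and hybridised to a DNA barcode microarray at 55.5 °C for 20 h.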

[2] = tested on: TO-3-N3 (biotin conjugate); details: RNA library: Library-2
In short: as §1

[3] = tested on: TO-3-N3-2 (biotin conjugate); details: RNA library: Library-2
In short: as §1

TO-N3 (biotin conjugate) = details: RNA library: Library-2
In short: as §1

[4] = tested on: TO-N3-2 (biotin conjugate); details: RNA library: Library-2
In short: as §1

Row | Sequence | pull-down binding Z-score [1] | pull-down binding Z-score [2] | pull-down binding Z-score [3] | pull-down binding Z-score (TO-N3 (biotin conjugate)) | pull-down binding Z-score [4]
1 | AUACUGGAGCAAUAGAUACAGUU [hsa-mir-3692] | -0.223 | -0.727 | -0.389 | -0.663 | -0.353
2 | AUAGAACAUUGACAUCAACACUAG [hsa-mir-4278] | -2.05 | -0.104 | -0.0605 | -0.204 | -0.508
3 | AUAGCACAAAGUCUUAUGGUACUGU [hsa-mir-3169] | 1.12 | 0.174 | 0.253 | 0.199 | -0.178
4 | AUAGUUGAGGAGGACACCCAAGGAGAUCACUAU [hsa-let-7e] | -0.413 | 0.341 | 0.863 | 0.871 | 1.26
5 | AUAGUUGUGGGGUAGUGAUUUUACCCUGUUCAGGAGAUAACUAU [hsa-let-7f-1] | -0.471 | 0.676 | 0.657 | 0.842 | 0.224
6 | AUAGUUUAGAAUUACAUCAAGGGAGAUAACUGU [hsa-let-7a-2] | 0.705 | -0.34 | 0.285 | -0.695 | -0.163
7 | AUAGUUUGGGGCUCUGCCCUGCUAUGGGAUAACUAU [hsa-let-7a-3] | 0.889 | -0.227 | -0.115 | -0.227 | 0.141
8 | AUAGUUUUAGGGCAGGGAUUUUGCCCACAAGGAGGUAACUAU [hsa-let-7d] | -0.917 | 0.236 | 0.589 | 0.112 | 0.203
9 | AUAGUUUUAGGGUCACACCCACCACUGGGAGAUAACUAU [hsa-let-7a-1] | 0.294 | 0.853 | 0.205 | 0.607 | -0.0919
10 | AUAGUUUUAGGGUCAUACCCCAUCUUGGAGAUAACUAU [hsa-let-7f-2] | -1.63 | -0.384 | 0.00457 | -0.497 | -0.745
11 | AUAUAAAAUGCAAUUA [hsa-mir-3945] | -1.21 | 0.256 | 0.327 | 0.0171 | -0.448
12 | AUAUAAGGGAAGGCAUUAUAG [hsa-mir-3117] | 0.00615 | 0.00808 | 0.0974 | 0.0219 | -0.234
13 | AUAUAGAUAUCAGCUACCUAUAU [hsa-mir-3144] | -0.95 | -0.694 | -0.329 | -1.06 | -1.38
14 | AUAUGAGCUUCAUUUAUACAUUUCAUAU [hsa-mir-556] | -0.528 | -0.0401 | -0.0541 | -0.335 | -1.01
15 | AUAUGUGUGUAUAUAUGUACACAUAC [hsa-mir-466] | -0.157 | -0.227 | -0.378 | -0.604 | -1.14
16 | AUAUUGACACUAUAACAAUAAUGUCAAUAU [hsa-mir-4795] | 0.669 | -0.438 | -0.44 | -0.874 | -1.79
17 | AUCAAAGUGGGGACUCAUGGGGAGAG [hsa-mir-4284] | 0.195 | 3.11 | 1.43 | 2.65 | 1.07
18 | AUCAAGAAAAGAUUUGGUGUUCUUGAU [hsa-mir-4782] | 1.36 | -0.152 | -0.112 | -0.513 | -0.784
19 | AUCACUGAAAUAUGUCUGAGCUUCUGUU [hsa-mir-4501] | -0.332 | -0.584 | -0.00263 | -0.658 | -0.302

Row | Sequence | pull-down binding Z-score [1] | pull-down binding Z-score [2] | pull-down binding Z-score [3] | pull-down binding Z-score (TO-N3 (biotin conjugate)) | pull-down binding Z-score [4]
20 | AUCAGCAGAGACAUGAGGUGAUCAAAAACCUUUUUUCAAAGCAGUGGG [hsa-mir-4300] | -0.911 | 0.48 | 0.276 | 0.796 | 0.438
21 | AUCAGGCAGUUUCCUG [hsa-mir-4289] | -1.29 | -0.305 | 0.101 | -0.16 | 0.0394
22 | AUCAGUUCUCAUUUUACACACUGGC [hsa-mir-24-1] | 0.0425 | -0.563 | -0.0568 | -0.54 | -0.282
23 | AUCAUAAUAAAGGUGUCAUGAU [hsa-mir-3682] | -0.55 | -0.489 | -0.169 | -0.879 | -0.694
24 | AUCAUCUCUCCCUUGGAU [hsa-mir-3683] | 1.39 | -0.626 | -0.257 | -0.733 | -0.446
25 | AUCAUGUAUAAUUAAAAAUGAU [hsa-mir-509-2_509-3_509-1] | -0.568 | -0.267 | -0.0578 | -0.599 | -1
26 | AUCCAGUCCACUUAAUUCUGAGAAAGUCCACAGACUGGAUCGGGUCUUGGAUUUUAGCUGGAUUCAU [hsa-mir-6082] | -0.0473 | -0.796 | -0.223 | -0.258 | 0.4
27 | AUCCCUUAGAUGCUAAGAUGGGGAU [hsa-mir-145] | 1.18 | -0.278 | -0.237 | -0.513 | -0.75
28 | AUCGGUCGAGAGCGUCCUGGCUGAU [hsa-mir-3178] | 0.173 | 0.18 | -0.22 | 0.526 | 1
29 | AUCUAUUCCAGAAGAU [hsa-mir-4696] | 1.53 | -0.911 | -0.62 | -1.28 | -1.35
30 | AUCUCCUUUAGGAAAACCUUCUGUGGGGAGU [hsa-mir-1296] | -0.272 | -0.0517 | -0.226 | -0.275 | -0.641
31 | AUCUGAAUGAUCUCAGC [hsa-mir-626] | -1.32 | 0.58 | 0.105 | 0.677 | 0.364
32 | AUCUGAGGUGACUGGCACAGAAGACUCAGG [hsa-mir-6735] | -0.394 | 0.238 | 0.101 | 0.673 | 0.797
33 | AUCUGAUGUUGAAUACUCUUUAAGU [hsa-mir-1245a] | -1.01 | -0.143 | -0.281 | -0.322 | -0.685
34 | AUCUGCAGGGCAUUGUGCUAACAGGU [hsa-mir-4681] | 1.35 | 0.532 | 0.211 | 0.644 | 0.0756
35 | AUCUUCCUGACCUGGUAAUAAUUAGGUGAGAAGGAU [hsa-mir-8069-2_8069-1] | 0.78 | -0.958 | -0.589 | -1.2 | -1.12
36 | AUGAGAAAUUGGUUUCAA [hsa-mir-8063] | 1.5 | -0.191 | -0.245 | -0.161 | -0.557
37 | AUGAGCUAAAAAUCCCCAAGCUCU [hsa-mir-4769] | -0.0764 | -0.414 | -0.358 | -0.477 | -0.0561
